From article PMC1911201 (Molecular Systems Biology, 2007)

Experiments:
Test in all cases: peptide or protein array
Ykr021w = biological target: T1, Ykr021w (S. cerevisiae, UniProt P36117 1-915)
T1 sequence (looked up): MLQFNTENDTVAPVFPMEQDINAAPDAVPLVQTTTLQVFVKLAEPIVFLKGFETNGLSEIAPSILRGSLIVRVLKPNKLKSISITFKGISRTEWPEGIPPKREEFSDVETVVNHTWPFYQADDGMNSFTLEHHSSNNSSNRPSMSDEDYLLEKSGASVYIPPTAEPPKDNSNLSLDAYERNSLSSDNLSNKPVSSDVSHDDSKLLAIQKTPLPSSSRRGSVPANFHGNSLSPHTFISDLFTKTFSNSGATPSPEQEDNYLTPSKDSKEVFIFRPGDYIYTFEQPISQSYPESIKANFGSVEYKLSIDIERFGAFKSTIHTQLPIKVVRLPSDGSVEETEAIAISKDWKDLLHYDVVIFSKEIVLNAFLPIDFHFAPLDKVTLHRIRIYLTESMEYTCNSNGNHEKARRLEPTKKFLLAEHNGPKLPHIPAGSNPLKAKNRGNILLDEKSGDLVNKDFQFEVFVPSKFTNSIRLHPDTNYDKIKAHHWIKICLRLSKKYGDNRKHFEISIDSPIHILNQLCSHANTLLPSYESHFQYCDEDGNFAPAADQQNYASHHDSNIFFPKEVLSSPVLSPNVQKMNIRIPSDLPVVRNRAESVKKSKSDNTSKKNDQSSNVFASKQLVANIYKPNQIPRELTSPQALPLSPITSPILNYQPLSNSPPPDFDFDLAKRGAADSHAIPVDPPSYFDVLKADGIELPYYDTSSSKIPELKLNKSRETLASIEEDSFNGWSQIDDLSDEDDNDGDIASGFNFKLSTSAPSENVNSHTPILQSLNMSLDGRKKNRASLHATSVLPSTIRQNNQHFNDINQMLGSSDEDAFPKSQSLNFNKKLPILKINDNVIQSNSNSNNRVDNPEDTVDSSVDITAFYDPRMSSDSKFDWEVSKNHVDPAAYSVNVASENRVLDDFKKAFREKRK

Dis3 = biological target: T2, Dis3 (S. cerevisiae, UniProt Q08162 1-1001)
T2 sequence (looked up): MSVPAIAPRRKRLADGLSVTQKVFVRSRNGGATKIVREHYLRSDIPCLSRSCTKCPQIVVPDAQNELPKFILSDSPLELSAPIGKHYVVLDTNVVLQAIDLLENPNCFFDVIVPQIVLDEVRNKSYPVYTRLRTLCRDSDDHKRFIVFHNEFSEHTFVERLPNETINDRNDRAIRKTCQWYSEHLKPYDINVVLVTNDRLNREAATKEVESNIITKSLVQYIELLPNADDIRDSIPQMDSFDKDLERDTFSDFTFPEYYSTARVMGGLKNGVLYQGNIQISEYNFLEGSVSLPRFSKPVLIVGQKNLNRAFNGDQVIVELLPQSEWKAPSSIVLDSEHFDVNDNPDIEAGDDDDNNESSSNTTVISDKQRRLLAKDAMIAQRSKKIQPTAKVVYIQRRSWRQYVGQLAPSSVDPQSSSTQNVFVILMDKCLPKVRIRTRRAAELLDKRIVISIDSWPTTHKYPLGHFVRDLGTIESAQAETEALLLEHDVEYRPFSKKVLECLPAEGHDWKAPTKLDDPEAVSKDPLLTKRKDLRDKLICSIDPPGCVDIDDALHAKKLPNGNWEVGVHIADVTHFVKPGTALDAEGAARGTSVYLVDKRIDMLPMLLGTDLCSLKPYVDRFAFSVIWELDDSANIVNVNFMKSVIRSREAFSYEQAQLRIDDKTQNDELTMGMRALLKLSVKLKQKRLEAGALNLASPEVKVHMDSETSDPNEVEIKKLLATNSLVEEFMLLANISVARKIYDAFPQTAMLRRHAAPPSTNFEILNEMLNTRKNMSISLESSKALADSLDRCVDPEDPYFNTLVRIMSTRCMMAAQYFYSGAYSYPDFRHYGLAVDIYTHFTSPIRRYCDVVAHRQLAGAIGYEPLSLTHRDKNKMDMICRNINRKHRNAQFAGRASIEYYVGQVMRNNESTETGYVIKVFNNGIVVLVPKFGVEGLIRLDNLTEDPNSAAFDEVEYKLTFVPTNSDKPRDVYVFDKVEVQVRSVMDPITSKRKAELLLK

Yjl084c = biological target: T3, Yjl084c (S. cerevisiae, UniProt P47029 1-1046)
T3 sequence (looked up): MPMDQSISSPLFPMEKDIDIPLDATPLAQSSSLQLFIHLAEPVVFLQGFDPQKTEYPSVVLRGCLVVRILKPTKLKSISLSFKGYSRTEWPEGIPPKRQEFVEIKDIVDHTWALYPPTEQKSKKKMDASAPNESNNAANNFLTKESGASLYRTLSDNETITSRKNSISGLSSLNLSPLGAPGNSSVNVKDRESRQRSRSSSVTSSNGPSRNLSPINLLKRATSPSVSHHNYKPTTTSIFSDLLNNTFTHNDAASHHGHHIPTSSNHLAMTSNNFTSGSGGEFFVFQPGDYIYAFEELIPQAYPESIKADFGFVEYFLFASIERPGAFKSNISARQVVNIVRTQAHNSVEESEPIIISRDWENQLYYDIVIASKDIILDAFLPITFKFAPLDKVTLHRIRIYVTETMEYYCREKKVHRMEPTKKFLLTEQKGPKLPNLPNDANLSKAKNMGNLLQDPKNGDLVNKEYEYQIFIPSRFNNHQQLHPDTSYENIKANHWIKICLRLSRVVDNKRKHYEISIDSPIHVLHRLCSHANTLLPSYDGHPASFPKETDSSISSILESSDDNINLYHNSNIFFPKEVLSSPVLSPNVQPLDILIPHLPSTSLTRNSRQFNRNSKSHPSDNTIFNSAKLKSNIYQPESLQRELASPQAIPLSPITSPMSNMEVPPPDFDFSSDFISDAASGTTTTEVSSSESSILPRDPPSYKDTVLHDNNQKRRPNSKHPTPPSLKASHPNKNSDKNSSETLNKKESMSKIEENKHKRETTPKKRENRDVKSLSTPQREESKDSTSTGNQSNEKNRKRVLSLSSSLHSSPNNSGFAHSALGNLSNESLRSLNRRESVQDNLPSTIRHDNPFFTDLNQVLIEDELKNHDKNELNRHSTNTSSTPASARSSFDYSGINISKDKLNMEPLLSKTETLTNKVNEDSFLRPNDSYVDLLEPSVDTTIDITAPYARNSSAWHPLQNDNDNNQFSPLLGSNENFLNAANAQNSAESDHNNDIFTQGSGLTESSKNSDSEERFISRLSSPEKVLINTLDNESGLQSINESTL

Measured: binding result

B1: Rsp5 (enzyme)
chain: not shown
modifications: labeled with AlexaFluor 647 (Microscale Protein Labeling kit)
binds: Ykr021w | Dis3 | Yjl084c
